Test results from US20230374130A1 (published 2023).

Target: human CD3 epsilon (CD3ε) (human, UniProt P07766 23-207)
Assay: binding kinetics

Sequence of human CD3 epsilon (CD3ε) (P07766 23-207): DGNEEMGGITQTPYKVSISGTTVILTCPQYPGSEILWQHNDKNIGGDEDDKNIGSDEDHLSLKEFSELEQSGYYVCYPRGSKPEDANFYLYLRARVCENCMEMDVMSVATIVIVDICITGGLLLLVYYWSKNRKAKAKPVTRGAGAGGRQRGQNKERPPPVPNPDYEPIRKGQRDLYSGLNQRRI

B1: 160C9_T4h (bispecific antibody)
light: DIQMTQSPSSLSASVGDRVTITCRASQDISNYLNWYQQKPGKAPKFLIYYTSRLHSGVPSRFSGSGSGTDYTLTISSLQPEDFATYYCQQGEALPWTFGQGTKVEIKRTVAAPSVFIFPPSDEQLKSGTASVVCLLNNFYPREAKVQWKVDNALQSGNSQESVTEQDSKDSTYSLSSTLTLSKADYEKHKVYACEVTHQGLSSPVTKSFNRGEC
heavy 1: QVQLVQSGAEVKKPGASVKVSCKASGYKFTSYWIEWVRQAPGQGLEWIGEILPGSDTTNYNEKFKDRVTFTSDTSTSTVYMELSSLRSEDTAVYYCARDRGNYRAWFGYWGQGTLVTVSSASTKGPSVFPLAPSSKSTSGGTAALGCLVKDYFPEPVTVSWNSGALTSGVHTFPAVLQSSGLYSLSSVVTVPSSSLGTQTYICNVNHKPSNTKVDKKVEPKSCDKTHTCPPCPAPEAAGAPSVFLFPPKPKDTLMISRTPEVTCVVVDVSHEDPEVKFNWYVDGVEVHNAKTKPREEQYNSTYRVVSVLTVLHQDWLNGKEYKCKVSNKALPAPIEKTISKAKGQPREPQVYTLPPSRDELTKNQVSLSCAVKGFYPSDIAVEWESNGQPENNYKTTPPVLDSDGSFFLVSKLTVDKSRWQQGNVFSCSVMHEALHNHYTQKSLSLSPG
heavy 2: not shown
  Kd: 12 nM
